The results in this text go back to US20250326865A1, “C-MET PROTEIN-BINDING PEPTIDE COMPLEX” (PeptiDream Inc., priority 2021, published 2025).

Starred links: 1 amine or outer side, 2 acyl side, 3 side chain; linkers in the order of their positions; H or OH if unused. Positions of bridges follow the written chain, without caps; N, C: chain ends. Non-standard residues stand in square brackets, D forms with d. Primed or numbered codes have the meaning given here. Chains are numbered I, II in the order given. No end group written: not given here. CO(CH2)2(OCH2CH2)17CO = O=C(CCOCCOCCOCCOCCOCCOCCOCCOCCOCCOCCOCCOCCOCCOCCOCCOCCOCCC(=O)[*:2])[*:1]; CO(CH2CH2O)9CH2CH2CO = O=C(CCOCCOCCOCCOCCOCCOCCOCCOCCOCCC(=O)[*:2])[*:1]; NMeF = CN[C@@H](Cc1ccccc1)C(=O)O; Ahp(2) = CCCCC[C@H](N)C(=O)O; NMeC = CN[C@@H](CS)C(=O)O; Ahp′ = not defined here

The target of one assay is T1, c-Met (Homo sapiens, UniProt P08581).
T1 construct: endogenous in cells; host or cells: A431 (human)
The assay is described as follows: Phospho-c-Met AlphaLISA assay (c-Met agonist activity) in A431 cells. In kind it is cell-based. The conditions noted are these: c-Met phosphorylation (Tyr1234/1235) in A431 cells, 15 minutes of stimulation; maximum signal induced by HGF = 100%. The method, then:
To evaluate the activation potency (c-Met agonist activity) of c-Met of the peptide complex of the present invention, the phosphorylation of c-Met was verified. Human A431 cells were cultured in DMEM high glucose, GlutaMAX (registered trademark) Supplement, pyruvate (Thermo Fisher Scientific), containing 10% FBS (Gibco). After cells were detached using Accutase (Innovative cell technologies), they were seeded into a 96-well plate at 10000 cells per well and cultured overnight. The next day, for starvation, the culture medium was changed to DMEM high glucose, GlutaMAX (registered trademark) Supplement, pyruvate (Thermo Fisher Scientific), containing 0.1% BSA (Sigma-Aldrich), and the cells were cultured overnight. Then, the peptide complex synthesized in Example 3 or Recombinant Human HGF Protein (R&D systems) as a control was added, and after 15 minutes of stimulation, cells were lysed in a Lysis Buffer provided in the AlphaLISA (registered trademark) SureFire (registered trademark) Ultra™ Phospho-c-Met (Tyr1234/1235) kit (PerkinElmer). The assay was performed according to the kit protocol, and a SpectraMax (registered trademark) Paradigm (registered trademark) multimode microplate reader (Molecular Devices, LLC.) was used for signal detection. […] In the same manner, the C50 value was calculated by GraphPad Prism as the concentration of peptide showing 50% activity of the signal induced by HGF. […] Further, for a complex (GFs_c-Met-00014336-PEG13 dimer; complex no. 49 in Table 4) of a peptide (SEQ ID NO: 34) and a linker (SEQ ID NO: 37), a graph of c-Met agonist activity is shown in FIG. 1.

Another assay has as its target human c-Met protein (human, UniProt P08581 25-1390). Description: cell-based or functional assay.

Chain of human c-Met protein (P08581 25-1390): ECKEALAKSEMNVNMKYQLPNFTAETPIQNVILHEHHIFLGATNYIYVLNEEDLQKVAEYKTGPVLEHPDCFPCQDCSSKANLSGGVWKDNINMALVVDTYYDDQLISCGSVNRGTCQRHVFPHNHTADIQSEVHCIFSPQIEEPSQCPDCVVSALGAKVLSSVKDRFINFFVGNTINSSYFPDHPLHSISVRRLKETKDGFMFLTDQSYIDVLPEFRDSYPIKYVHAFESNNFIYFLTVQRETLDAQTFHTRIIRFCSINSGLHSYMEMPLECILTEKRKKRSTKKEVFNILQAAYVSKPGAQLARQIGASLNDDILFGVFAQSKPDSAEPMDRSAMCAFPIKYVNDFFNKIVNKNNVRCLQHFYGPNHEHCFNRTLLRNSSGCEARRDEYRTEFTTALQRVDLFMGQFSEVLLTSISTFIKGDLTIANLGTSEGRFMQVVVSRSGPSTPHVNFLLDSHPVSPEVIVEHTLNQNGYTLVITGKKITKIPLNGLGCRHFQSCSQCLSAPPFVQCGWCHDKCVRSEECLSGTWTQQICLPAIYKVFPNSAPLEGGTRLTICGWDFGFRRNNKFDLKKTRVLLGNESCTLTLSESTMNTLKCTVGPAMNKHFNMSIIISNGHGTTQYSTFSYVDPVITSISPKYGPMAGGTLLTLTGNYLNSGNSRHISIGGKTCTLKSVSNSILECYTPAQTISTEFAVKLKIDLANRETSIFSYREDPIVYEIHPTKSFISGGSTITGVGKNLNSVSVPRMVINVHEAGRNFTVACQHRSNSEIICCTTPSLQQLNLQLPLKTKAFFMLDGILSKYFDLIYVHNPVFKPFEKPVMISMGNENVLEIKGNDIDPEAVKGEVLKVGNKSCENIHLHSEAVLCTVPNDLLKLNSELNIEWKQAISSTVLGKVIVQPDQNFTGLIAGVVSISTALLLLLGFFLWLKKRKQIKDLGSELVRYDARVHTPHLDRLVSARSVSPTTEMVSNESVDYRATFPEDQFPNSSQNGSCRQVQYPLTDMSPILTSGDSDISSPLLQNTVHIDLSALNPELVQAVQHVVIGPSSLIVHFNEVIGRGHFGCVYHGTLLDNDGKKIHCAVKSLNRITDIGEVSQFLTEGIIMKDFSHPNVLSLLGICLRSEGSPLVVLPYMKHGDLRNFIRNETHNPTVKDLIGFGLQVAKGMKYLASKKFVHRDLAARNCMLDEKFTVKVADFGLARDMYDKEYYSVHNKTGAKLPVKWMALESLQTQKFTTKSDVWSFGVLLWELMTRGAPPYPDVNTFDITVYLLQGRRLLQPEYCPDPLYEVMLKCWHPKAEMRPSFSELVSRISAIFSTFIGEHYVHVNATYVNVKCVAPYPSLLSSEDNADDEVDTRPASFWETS
T1 sequence (P08581 25-1390): as above

Turning to “16 ({CH2CO}-[NMeF]VAVS[NMeF]DDD[Ahp′]PRWS[NMeC]; thioether N-15 (inferred); not fully specified; reading uncertain; also: conjugated moiety via linker) [Peptide 16]”, the “C-Met Agonist Activity (2 or 1)” value in the assay with c-Met is listed as 1 (those showing less than 50% activation as 1).
Turning to “13 ({CH2CO}-[NMeF]VYVS[NMeF]DDD[Ahp′]PRWH[NMeC]; thioether N-15 (inferred); not fully specified; reading uncertain; also: conjugated moiety via linker) [Peptide 13]”, in the assay with c-Met, the “C-Met Agonist Activity (2 or 1)” value is 2 (those showing more than 50% activation were described as 2).

B1: Peptide complex No. 38 in Table 4 (peptide SEQ ID NO: 28, GFs_c-Met-00014303p; linker SEQ ID NO: 36) (peptide)
peptide: {CH2CO}-[NMeF]TRVS[NMeF]DSD[Ahp(2)]PRWS[NMeC]
chain: GK[CO(CH2CH2O)9CH2CH2CO]KG
modifications: thioether I:N-I:15 (inferred); also: homodimer of two cyclic peptides joined by linker G-K-cPEG9c-K-G, peptide C-terminus on linker
Regarding B1, in the assay with human c-Met protein, the “C-Met Agonist Activity (C50; nM): phospho-c-Met AlphaLISA, A431 cells” value (“C-Met Agonist Activity (C50; nM)” below) amounted to 0.65 nM.

B2: Peptide complex No. 39 in Table 4 (peptide SEQ ID NO: 29, GFs_c-Met-00014306p; linker SEQ ID NO: 38) (peptide)
peptide: {CH2CO}-[NMeF]TAVSLDSD[Ahp(2)]PRWS[NMeC]
chain: GK[CO(CH2)2(OCH2CH2)17CO]KG
modifications: thioether I:N-I:15 (inferred); also: homodimer of two cyclic peptides joined by linker G-K-cPEG17c-K-G, peptide C-terminus on linker
Regarding B2, in the assay with human c-Met protein, the “C-Met Agonist Activity (C50; nM)” value is 1.44 nM.

B3: Peptide complex No. 43 in Table 4 (peptide SEQ ID NO: 31, Gfs_c-Met-00014294p; linker SEQ ID NO: 38) (peptide)
peptide: {CH2CO}-[NMeF]TAVS[NMeF]DSD[Ahp(2)]PRWA[NMeC]
chain: GK[CO(CH2)2(OCH2CH2)17CO]KG
modifications: thioether I:N-I:15 (inferred); also: homodimer of two cyclic peptides joined by linker G-K-cPEG17c-K-G, peptide C-terminus on linker
Regarding B3, the “C-Met Agonist Activity (C50; nM)” value with human c-Met protein worked out at 0.45 nM.

B4: Peptide complex No. 42 in Table 4 (peptide SEQ ID NO: 30, GFs_c-Met-00014304p; linker SEQ ID NO: 36) (peptide)
peptide: {CH2CO}-[NMeF]TAVS[NMeF]DSDRPRWS[NMeC]
chain: GK[CO(CH2CH2O)9CH2CH2CO]KG
modifications: thioether I:N-I:15 (inferred); also: homodimer of two cyclic peptides joined by linker G-K-cPEG9c-K-G, peptide C-terminus on linker
Consider B4, for which the “C-Met Agonist Activity (C50; nM)” value with human c-Met protein worked out at 0.33 nM.

B5: GFs_c-Met-00014305-PEG17 dimer (peptide SEQ ID NO: 34, GFs_c-Met-00014336p; linker SEQ ID NO: 38) (peptide)
peptide: {CH2CO}-[NMeF]TAVS[NMeF]DED[Ahp(2)]PRWS[NMeC]
chain: GK[CO(CH2)2(OCH2CH2)17CO]KG
modifications: thioether I:N-I:15 (inferred); also: homodimer: two cyclic peptides joined by linker G-K-cPEG17c-K-G, peptide C-terminus on linker
Turning to B5, in the assay with human c-Met protein, the “C-Met Agonist Activity (C50; nM)” value was determined as 0.27 nM.

B6: Peptide complex No. 48 in Table 4 (peptide SEQ ID NO: 33, GFs_c-Met-00014300p; linker SEQ ID NO: 36) (peptide)
peptide: {CH2CO}-[NMeF]TAVS[NMeF]DPD[Ahp(2)]PRWS[NMeC]
chain: GK[CO(CH2CH2O)9CH2CH2CO]KG
modifications: thioether I:N-I:15 (inferred); also: homodimer of two cyclic peptides joined by linker, peptide C-terminus on linker
For B6, the “C-Met Agonist Activity (C50; nM)” value with human c-Met protein is 0.35 nM.

B7: GFs_c-Met-00014318-PEG9 dimer (peptide SEQ ID NO: 34, GFs_c-Met-00014336p; linker SEQ ID NO: 36) (peptide)
peptide: {CH2CO}-[NMeF]TAVS[NMeF]DED[Ahp(2)]PRWS[NMeC]
chain: GK[CO(CH2CH2O)9CH2CH2CO]KG
modifications: thioether I:N-I:15 (inferred); also: homodimer: two cyclic peptides joined by linker G-K-cPEG9c-K-G, peptide C-terminus on linker
With B7, in the assay with human c-Met protein, the “C-Met Agonist Activity (C50; nM)” value came to 0.24 nM.

B8: Peptide complex No. 44 in Table 4 (peptide SEQ ID NO: 31, Gfs_c-Met-00014294p; linker SEQ ID NO: 36) (peptide)
peptide: {CH2CO}-[NMeF]TAVS[NMeF]DSD[Ahp(2)]PRWA[NMeC]
chain: GK[CO(CH2CH2O)9CH2CH2CO]KG
modifications: thioether I:N-I:15 (inferred); also: homodimer of two cyclic peptides joined by linker G-K-cPEG9c-K-G, peptide C-terminus on linker
As for B8, the “C-Met Agonist Activity (C50; nM)” value with human c-Met protein worked out at 0.33 nM.

B9: Peptide complex No. 35 in Table 4 (peptide SEQ ID NO: 27, GFs_c-Met-00014302p; linker SEQ ID NO: 38) (peptide)
peptide: {CH2CO}-[NMeF]QAVS[NMeF]DPD[Ahp(2)]PRWS[NMeC]
chain: GK[CO(CH2)2(OCH2CH2)17CO]KG
modifications: thioether I:N-I:15 (inferred); also: homodimer of two cyclic peptides joined by linker G-K-cPEG17c-K-G, peptide C-terminus on linker
Turning to B9, the “C-Met Agonist Activity (C50; nM)” value with human c-Met protein amounted to 0.92 nM.

B10: Peptide complex No. 45 in Table 4 (peptide SEQ ID NO: 32, GFs_c-Met-00014297p; linker SEQ ID NO: 38) (peptide)
peptide: {CH2CO}-[NMeF]TAVS[NMeF]DPD[Ahp(2)]PRWA[NMeC]
chain: GK[CO(CH2)2(OCH2CH2)17CO]KG
modifications: thioether I:N-I:15 (inferred); also: homodimer of two cyclic peptides joined by linker G-K-cPEG17c-K-G, peptide C-terminus on linker
In the case of B10, the “C-Met Agonist Activity (C50; nM)” value with human c-Met protein amounted to 0.71 nM.

B11: Peptide complex No. 33 in Table 4 (peptide SEQ ID NO: 26, GFs_c-Met-00014299p; linker SEQ ID NO: 38) (peptide)
peptide: {CH2CO}-[NMeF]QAVS[NMeF]DPD[Ahp(2)]PRWA[NMeC]
chain: GK[CO(CH2)2(OCH2CH2)17CO]KG
modifications: thioether I:N-I:15 (inferred); also: homodimer of two cyclic peptides joined by linker G-K-cPEG17c-K-G, peptide C-terminus on linker
Take B11: in the assay with human c-Met protein, the “C-Met Agonist Activity (C50; nM)” value amounted to 2.05 nM.

B12: Peptide complex No. 41 in Table 4 (peptide SEQ ID NO: 30, GFs_c-Met-00014304p; linker SEQ ID NO: 38) (peptide)
peptide: {CH2CO}-[NMeF]TAVS[NMeF]DSDRPRWS[NMeC]
chain: GK[CO(CH2)2(OCH2CH2)17CO]KG
modifications: thioether I:N-I:15 (inferred); also: homodimer of two cyclic peptides joined by linker G-K-cPEG17c-K-G, peptide C-terminus on linker
Consider B12, for which the “C-Met Agonist Activity (C50; nM)” value in the assay with human c-Met protein was determined as 0.32 nM.

B13: Peptide complex No. 36 in Table 4 (peptide SEQ ID NO: 27, GFs_c-Met-00014302p; linker SEQ ID NO: 36) (peptide)
peptide: {CH2CO}-[NMeF]QAVS[NMeF]DPD[Ahp(2)]PRWS[NMeC]
chain: GK[CO(CH2CH2O)9CH2CH2CO]KG
modifications: thioether I:N-I:15 (inferred); also: homodimer of two cyclic peptides joined by linker G-K-cPEG9c-K-G, peptide C-terminus on linker
Consider B13, for which, in the assay with human c-Met protein, the “C-Met Agonist Activity (C50; nM)” value is 0.73 nM.

B14: Peptide complex No. 40 in Table 4 (peptide SEQ ID NO: 29, GFs_c-Met-00014306p; linker SEQ ID NO: 36) (peptide)
peptide: {CH2CO}-[NMeF]TAVSLDSD[Ahp(2)]PRWS[NMeC]
chain: GK[CO(CH2CH2O)9CH2CH2CO]KG
modifications: thioether I:N-I:15 (inferred); also: homodimer of two cyclic peptides joined by linker G-K-cPEG9c-K-G, peptide C-terminus on linker
As to B14, in the assay with human c-Met protein, the “C-Met Agonist Activity (C50; nM)” value turned out to be 2.13 nM.

B15: Peptide complex No. 34 in Table 4 (peptide SEQ ID NO: 26, GFs_c-Met-00014299p; linker SEQ ID NO: 36) (peptide)
peptide: {CH2CO}-[NMeF]QAVS[NMeF]DPD[Ahp(2)]PRWA[NMeC]
chain: GK[CO(CH2CH2O)9CH2CH2CO]KG
modifications: thioether I:N-I:15 (inferred); also: homodimer of two cyclic peptides joined by linker G-K-cPEG9c-K-G, peptide C-terminus on linker
Turning to B15, the “C-Met Agonist Activity (C50; nM)” value with human c-Met protein is 1.26 nM.

B16: Peptide complex No. 47 in Table 4 (peptide SEQ ID NO: 33, GFs_c-Met-00014300p; linker SEQ ID NO: 38) (peptide)
peptide: {CH2CO}-[NMeF]TAVS[NMeF]DPD[Ahp(2)]PRWS[NMeC]
chain: GK[CO(CH2)2(OCH2CH2)17CO]KG
modifications: thioether I:N-I:15 (inferred); also: homodimer of two cyclic peptides joined by linker G-K-cPEG17c-K-G, peptide C-terminus on linker
As for B16, the “C-Met Agonist Activity (C50; nM)” value with human c-Met protein was determined as 0.5 nM.

B17: Peptide complex No. 37 in Table 4 (peptide SEQ ID NO: 28, GFs_c-Met-00014303p; linker SEQ ID NO: 38) (peptide)
peptide: {CH2CO}-[NMeF]TRVS[NMeF]DSD[Ahp(2)]PRWS[NMeC]
chain: GK[CO(CH2)2(OCH2CH2)17CO]KG
modifications: thioether I:N-I:15 (inferred); also: homodimer of two cyclic peptides joined by linker G-K-cPEG17c-K-G, peptide C-terminus on linker
Turning to B17, the “C-Met Agonist Activity (C50; nM)” value with human c-Met protein was 0.49 nM.

B18: Peptide complex No. 46 in Table 4 (peptide SEQ ID NO: 32, GFs_c-Met-00014297p; linker SEQ ID NO: 36) (peptide)
peptide: {CH2CO}-[NMeF]TAVS[NMeF]DPD[Ahp(2)]PRWA[NMeC]
chain: GK[CO(CH2CH2O)9CH2CH2CO]KG
modifications: thioether I:N-I:15 (inferred); also: homodimer of two cyclic peptides joined by linker G-K-cPEG9c-K-G, peptide C-terminus on linker
As to B18, in the assay with human c-Met protein, the “C-Met Agonist Activity (C50; nM)” value was 0.67 nM.
